± gives the standard deviation of the averaged measurements.
Test system: Saccharomyces cerevisiae
Assay: protein stability index of tFT-peptide fusion (C-terminal peptide) (PSI (0-1 scale)); higher = more stable (slower turnover)
Details: genetic background: das1 deletion; temperature: 30 C
Experimental: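 MPS profiling in S. cerevisiae of the yeast C-terminome library: the last 12 aa of each annotated ORF are fused to the C-terminus of a sfGFP-mCherry timer, after a GGGS linker. Cells are FACS-sorted into 8 mCherry/sfGFP bins and deep-sequenced. PSI runs from 0 (unstable) to 1 (stable); wild type and das1Δ backgrounds, two technical replicates each.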

Sequence | protein stability index
QKNKKRKFSDTS [RNT1 C-terminal 12 aa] | 0.696 ± 0.019
QLNLVVNGVRLN [YLR379W C-terminal 12 aa] | 0.674 ± 0.021
QMICPSLLGIRN [YHR130C C-terminal 12 aa] | 0.721 ± 0.013
QMRKNMTRTDEK [PKH1 C-terminal 12 aa] | 0.671 ± 0.056
QNNNILNDMRVN [SPT23 C-terminal 12 aa] | 0.669 ± 0.011
QQQQQKKESSTA [GIM5 C-terminal 12 aa] | 0.727 ± 0.0087
QRASSRPKERRK [MSB4 C-terminal 12 aa] | 0.711 ± 0.019
QRERINNYISVY [VMA6 C-terminal 12 aa] | 0.352 ± 0.02
QRSKSKRQKRRK [YNG1 C-terminal 12 aa] | 0.705 ± 0.017
QRTRRRMSLYKL [TOS3 C-terminal 12 aa] | 0.807 ± 0.036
QRVIKPSSALQF [ECM7 C-terminal 12 aa] | 0.706 ± 0.01
QSARRQRGSIAM [SDS24 C-terminal 12 aa] | 0.683 ± 0.02
QSLKISKKRRRK [ZIP1 C-terminal 12 aa] | 0.734 ± 0.033
QSMLDGNSPESV [DCR2 C-terminal 12 aa] | 0.6985 ± 0.0053
QTILKNKKKISQ [GYP6 C-terminal 12 aa] | 0.701 ± 0.049
QTVRKLDMDFEV [REV1 C-terminal 12 aa] | 0.735 ± 0.032
QVYYELGQIPFE [MET18 C-terminal 12 aa] | 0.738 ± 0.0075
QYMTSGYASNWN [YAR061W C-terminal 12 aa] | 0.715 ± 0.11
QYQHQHQQDPRT [NAF1 C-terminal 12 aa] | 0.701 ± 0.014
RATLNSVNSFLM [RIT1 C-terminal 12 aa] | 0.681 ± 0.013
RAVSGVELRIYV [POP7 C-terminal 12 aa] | 0.644 ± 0.012

Sequence | protein stability index
RAVTNRSSCSRR [YCR038W-A C-terminal 12 aa] | 0.697 ± 0.011
RDAEILAKIAKD [HSP10 C-terminal 12 aa] | 0.683 ± 0.021
RDMVELMKFYEL [HOS1 C-terminal 12 aa] | 0.715 ± 0.0096
RDVLDDGSNIMS [IAH1 C-terminal 12 aa] | 0.6824 ± 0.0049
REITKCKQIFHK [PTR3 C-terminal 12 aa] | 0.691 ± 0.02
REWFDIELNFSK [PMT4 C-terminal 12 aa] | 0.7467 ± 0.0068
RGENGQFWIGTK [BNI5 C-terminal 12 aa] | 0.744 ± 0.027
RGIAAIRESLSN [YIR042C C-terminal 12 aa] | 0.6681 ± 0.006
RHELQALQAEIN [END3 C-terminal 12 aa] | 0.715 ± 0.018
RHRKSEDRSLEA [ATR2 C-terminal 12 aa] | 0.706 ± 0.029
RIAAGDGDDDDE [QCR9 C-terminal 12 aa] | 0.7068 ± 0.0027
RIEQNRPDDGVY [FMP16 C-terminal 12 aa] | 0.682 ± 0.068
RIYHVYGRFLIH [NCA2 C-terminal 12 aa] | 0.671 ± 0.027
RKCRVYVIQDAF [YER084W-A C-terminal 12 aa] | 0.6849 ± 0.0056
RKFHVVDTSLFA [MOG1 C-terminal 12 aa] | 0.688 ± 0.01
RKSKKDTDSDSD [BMT5 C-terminal 12 aa] | 0.7 ± 0.023
RKTIRRDLASLV [TMA108 C-terminal 12 aa] | 0.691 ± 0.01
RLEKEAKIKQEE [CDC11 C-terminal 12 aa] | 0.6967 ± 0.0039
RLGLDWQPDSVS [MTH1 C-terminal 12 aa] | 0.695 ± 0.01
RLLGPCFKTGGI [YLR154W-B C-terminal 12 aa] | 0.696 ± 0.0085
RLNKLEAVLQTL [PML39 C-terminal 12 aa] | 0.685 ± 0.033

Sequence | protein stability index
RLSMLRPPSSSS [RSC2 C-terminal 12 aa] | 0.7185 ± 0.0066
RMHRRLPFPTLN [YJR142W C-terminal 12 aa] | 0.699 ± 0.025
RNNEHSHKKYNQ [YER090C-A C-terminal 12 aa] | 0.711 ± 0.0081
RRAAIHPYFQES [CDC28 C-terminal 12 aa] | 0.729 ± 0.013
RRHFSERRLENK [YPR074W-A C-terminal 12 aa] | 0.684 ± 0.022
RRPSSTSQYLIR [CDC20 C-terminal 12 aa] | 0.692 ± 0.01
RSNEEMYSWSRN [SPO74 C-terminal 12 aa] | 0.698 ± 0.039
RTQGEGQGSMFR [TAF11 C-terminal 12 aa] | 0.7233 ± 0.0027
RTRPPTAVAHIA [DUG3 C-terminal 12 aa] | 0.6938 ± 0.0057
RTTFRTLSSYGK [YHL041W C-terminal 12 aa] | 0.713 ± 0.0099
RTTGHNLKQDFN [BUD4 C-terminal 12 aa] | 0.696 ± 0.022
RVVDLVEHVAKA [TDH2 C-terminal 12 aa] | 0.705 ± 0.026
RVYTEQNVPVVS [YNL194C C-terminal 12 aa] | 0.6679 ± 0.0046
RWELVRESWREL [HSV2 C-terminal 12 aa] | 0.703 ± 0.03
RYENFINMARHK [YOR097C C-terminal 12 aa] | 0.816 ± 0.054
SAIADDDEEHKE [LHP1 C-terminal 12 aa] | 0.7103 ± 0.0044
SAIEEGISLNKG [TEL2 C-terminal 12 aa] | 0.7058 ± 0.0048
SAQRDRRYRKRN [RPS17B C-terminal 12 aa] | 0.721 ± 0.049
SATFTSDHIGHI [RIM21 C-terminal 12 aa] | 0.7167 ± 0.0052
SDEFVDASEYKD [UTP9 C-terminal 12 aa] | 0.7 ± 0.044
SDELSRNFDSQG [VPS3 C-terminal 12 aa] | 0.705 ± 0.017

Sequence | protein stability index
SDVAKQLAALGY [RPL16A C-terminal 12 aa] | 0.698 ± 0.024
SETIEELLKEVE [HYR1 C-terminal 12 aa] | 0.708 ± 0.0081
SFDVLAKVPNAA [RPA190 C-terminal 12 aa] | 0.692 ± 0.011
SFNEVVKEVQAL [NHP2 C-terminal 12 aa] | 0.687 ± 0.017
SFRLTKRQTDND [POS5 C-terminal 12 aa] | 0.7021 ± 0.0053
SFSYLWRNFGFI [PDR18 C-terminal 12 aa] | 0.7475 ± 0.0067
SGAGARGSSAAA [LYS2 C-terminal 12 aa] | 0.702 ± 0.011
SGPSAMTKFGPR [ARP2 C-terminal 12 aa] | 0.69 ± 0.032
SIDQFRGKLNSI [URA1 C-terminal 12 aa] | 0.701 ± 0.015
SIFIASLLLAIV [FLO10 C-terminal 12 aa] | 0.226 ± 0.0053
SILRIDDIAFSR [CCT4 C-terminal 12 aa] | 0.739 ± 0.033
SIYILNVIRNAQ [YGR117C C-terminal 12 aa] | 0.6687 ± 0.0012
SKEKARALGSNF [GTT1 C-terminal 12 aa] | 0.712 ± 0.016
SKGSPINTQYVF [AGA2 C-terminal 12 aa] | 0.731 ± 0.02
SKKTTISAKKQQ [SGE1 C-terminal 12 aa] | 0.713 ± 0.014
SKQEKPLSRPKD [GPI15 C-terminal 12 aa] | 0.718 ± 0.013
SKSFPTAGEMRA [PET8 C-terminal 12 aa] | 0.711 ± 0.035
SKTSHNPNEQSV [PDR11 C-terminal 12 aa] | 0.6953 ± 0.0037

Source: the supplement of paper PMC10724198
